In paper PMC4705653:

How the values were obtained:
[1] = molecular target: Sld3 (UniProt P53135); test: anti-Mcm2 co-IP, Sld3 blot; conditions: reference: wild-type mcm2; sites S164,S170
[2] = molecular target: GST-Mcm10 (budding yeast) (UniProt P32354); test: pull-down; 30 pmol GST-tagged protein on Glutathione Sepharose, varying concentrations of 32P-labelled PKA-tagged protein in solution; GST binding buffer (40 mM Tris–HCl pH 7.5, 100 mM NaCl, 0.1 mM EDTA, 10% glycerol, 0.1% Triton X-100, 1 mM DTT, 0.1 mg/ml BSA), 100 μl, 30°C, 10 min; SDS-PAGE and phosphorimaging; in some panels with 5 mM ATP or ATPγS, or with a third labelled protein (Mcm10, Sld3) added
Chain of GST-Mcm10 (budding yeast) (P32354 whole entry): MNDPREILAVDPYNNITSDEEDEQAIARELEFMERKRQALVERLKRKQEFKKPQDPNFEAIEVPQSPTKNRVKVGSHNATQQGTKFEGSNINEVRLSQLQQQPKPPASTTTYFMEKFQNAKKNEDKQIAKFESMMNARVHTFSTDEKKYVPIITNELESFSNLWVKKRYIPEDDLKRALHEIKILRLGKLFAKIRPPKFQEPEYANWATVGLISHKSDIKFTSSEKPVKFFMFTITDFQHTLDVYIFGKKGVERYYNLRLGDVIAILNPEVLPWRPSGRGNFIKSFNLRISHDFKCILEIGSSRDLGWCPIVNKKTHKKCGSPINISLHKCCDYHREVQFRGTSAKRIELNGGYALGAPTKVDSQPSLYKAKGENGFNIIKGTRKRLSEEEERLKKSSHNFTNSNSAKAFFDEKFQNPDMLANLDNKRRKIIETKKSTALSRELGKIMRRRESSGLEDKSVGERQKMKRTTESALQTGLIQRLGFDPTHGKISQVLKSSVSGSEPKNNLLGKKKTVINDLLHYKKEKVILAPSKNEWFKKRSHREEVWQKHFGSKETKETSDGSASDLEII

Substance | binding against the reference [1] | signal relative to GST alone [2] [times]
Mcm2 (from UniProt P29469) mcm2-2A (S164A S170A) | lost | 
PKA-Mcm2–7 complex (radiolabeled, wild type), P29469 1-868; P24279 1-971; P30665 1-933; P29496 1-775; P53091 1-1017; P38132 1-845 |  | > 10
